The record followed here is paper PMC7948422, “Repurposing p97 inhibitors for chemical modulation of the bacterial ClpB–DnaK bichaperone system” (The Journal of Biological Chemistry, 2020).

A word on the Kd: it is the equilibrium constant for the complex coming apart.

Assay [1] deals with FITC-casein. Kind of assay: fluorescence polarisation; fluorescence anisotropy; ClpB E279Q/E678Q titrated into 100-nM FITC-casein with 5-mM ATP, without DBeQ; fit of a binding isotherm with a Hill number. In general terms: Fluorescence polarisation rises when a labelled molecule tumbles more slowly, as on binding a larger partner.
For assay [2], the target named is FITC-casein. Kind of assay: fluorescence polarisation; fluorescence anisotropy; ClpB E279Q/E678Q titrated into 100-nM FITC-casein with 5-mM ATP and 80-μM DBeQ; fit of a binding isotherm with a Hill number.

In the case of “ClpB E279Q/E678Q (from UniProt P63284 1-857) (enzyme)”, the values for the Kd with FITC-casein [1] and with FITC-casein [2] were 77.3 nM and 78.5 nM, respectively.
